This assay concerns the target T1, rat α-CGRP (Rattus norvegicus, UniProt P01256).
T1 construct: 1-37 of rat α-CGRP (WT); purchased GenScript Corporation or Global Peptide Services (custom order); host or cells: synthetic peptide
T1 sequence (P01256 83-119 limits assumed): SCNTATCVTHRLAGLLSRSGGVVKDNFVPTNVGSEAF
Briefly: Biacore affinity of antibody G1 and variant Fabs to rat α-CGRP. It counts as binding. To be noted: 37° C.; Fab; screening mode unless underlined. As for the experimental part:
Biacore assay for affinity determination. […] All Biacore assays were conducted in HBS-EP running buffer (10 mM HEPES pH 7.4, 150 mM NaCl, 3 mM EDTA, 0.005% v/v polysorbate P20). CGRP surfaces were prepared by diluting the N-biotinylated CGRP to a concentration of less than 0.001 mg/mL into HBS-EP buffer and injecting it across the SA sensor chip using variable contact times. Low capacity surfaces, corresponding to capture levels <50 response units (RU) were used for high-resolution kinetic studies, whereas high capacity surfaces (about 800 RU of captured CGRP) were used for concentration studies, screening, and solution affinity determinations. […] Samples were typically injected for 1 minute at 100 μL/min and dissociation times of at least 10 minutes were allowed. After each binding cycle, surfaces were regenerated with 25 mM NaOH in 25% v/v ethanol, which was tolerated over hundreds of cycles. […]
High-resolution analysis of binding interactions with extremely slow offrates. […] The association rate constant (kon) was determined by injecting a 2-fold titration series (in duplicate) spanning 550 nM-1 nM for 30 sec at 100 uL/min and allowing only a 30 sec dissociation phase. The dissociation rate constant (koff) was determined by injecting three concentrations (high, medium, and low) of the same titration series in duplicate for 30 sec and allowing a 2-hour dissociation phase. […]

These results are taken from patent publication US10556945B2, “Antagonist antibodies directed against calcitonin gene-related peptide and methods using same” (Teva Pharmaceuticals International GmbH, priority 2014, dated 2020).

B1: M84: G1 variant: L1 R28N T30V; L2 A51H L56T; H2 E54N A57N; HC-FW3 L99T A100V (antibody, V domains shown)
VH: EVQLVESGGGLVQPGGSLRLSCAASGFTFSNYWISWVRQAPGKGLEWVAEIRSNSDNSATHYAEAVKGRFTISRDNAKNSLYLQMNSLRAEDTAVYYCTVYFDYGLAIQNYWGQGTLVTVSS
VL: EIVLTQSPATLSLSPGERATLSCKASKNVVTYVSWYQQKPGQAPRLLIYGHSNRYTGIPARFSGSGSGTDFTLTISSLEPEDFAVYYCSQSYNYPYTFGQGTKLEIK
In turn, B1 yielded a α-rat koff of 0.0176 s⁻¹.
